Data published in PMC9834311.

Target: E. coli F1Fo ATP synthase subunit b (cysteine-free enzyme) (E. coli) (UniProt P0ABA0)
Experiment: cryo-EM structure; detergent-solubilised (digitonin) cysteine-free E. coli F1Fo ATP synthase (WT at 11 μM, εΔCTH2 mutant at 9 μM) with 10 mM MgATP, pH 8.0, 22 °C, 45 s in all until freezing

stoichiometry N: 2
Substance: E. coli F1Fo ATP synthase subunit b (cysteine-free enzyme) (from UniProt P0ABA0 1-156) (natural protein)
